Results on 5 compounds are retold here after article PMC10713829 (Nature Communications, 2023).

Test [1] concerns the target T1, HLA-A*01:01/hβ2m (Homo sapiens, UniProt P04439, /R68K/S129P/T187R/V100A/V91M/W191G).
T1 construct: BirA substrate peptide (biotinylation tag, […]), seen only in the HDX-MS peptide map (C); made in house
Put plainly: Fluorescence anisotropy competition with TAMRA-NRAS^Q61K. The class given is binding. The protocol: TAMRA association with K61 was modeled to not disrupt interaction with the HLA-A*01:01 groove because K61 is solvent-exposed. […] NRAS peptides were prepared by chemical synthesis (GenScript, Piscataway, USA). […] Data was recorded on a SpectraMax iD5 plate reader with an excitation filter of λex = 531 nm and an emission filter of λem = 595 nm with an PMT gain set to high, an integration time of 1200 msec and read height 0.5 mm. Each experiment was performed in triplicate (n = 3) and is representative of at least two independent experiments. Experimental values were subtracted from background r values obtained from incubation of TAMRA-NRAS^Q61K alone. […] IC50 values were obtain by fitting to a simple single-site (one phase association) model with DynaFit (http://www.biokin.com/dynafit).
(In general: Polarisation of emitted light reports the rotation of a fluorescent probe.)

In test [2] the target is T2, HLA-A*01:01/hβ2m (Homo sapiens, UniProt P04439, A114D/A174V/A182V/D101N/D185E/E176A/E190D/L180R/Q94H/R68K/S129P/T187R/V100A/V91M/W191G).
T2 construct: BirA substrate peptide (biotinylation tag, […]), seen only in the HDX-MS peptide map (C); made in house
The test is described as follows: Hydrogen-deuterium exchange mass spectrometry (HDX-MS) of empty and peptide-loaded complexes. The conditions noted are these: for Average % deuterium uptake: 600s.

The mark [3] stands for this setting: fragment ASGSHSMRY 2-10, charge 2.
Setting [4] is: fragment ASGSHSMRY 2-10, charge 3.
Where [5] appears, read: fragment ASGSHSMRYF 2-11, charge 2.

Peptide text beside a SMILES is read from it.

Usually IC50 stands for the concentration needed to halve the response being measured. `CC[C@H](C)[C@H](N)C(=O)N[C@@H](CC(C)C)C(=O)N[C@@H](CC(=O)O)C(=O)N[C@H](C(=O)N[C@@H](C)C(=O)NCC(=O)N[C@@H](CCCCN)C(=O)N[C@@H](CCC(=O)O)C(=O)N[C@@H](CCC(=O)O)C(=O)N[C@@H](Cc1ccc(O)cc1)C(=O)O)[C@@H](C)O` [NRAS^Q61K]: on HLA-A*01:01/hβ2m [1], the IC50 was found to be 0.26 µM.
Still for that read-out and setting: the figure for `CC[C@H](C)[C@H](N)C(=O)N[C@@H](CC(C)C)C(=O)N[C@@H](CC(=O)O)C(=O)N[C@H](C(=O)N[C@@H](C)C(=O)NCC(=O)N[C@@H](CCC(N)=O)C(=O)N[C@@H](CCC(=O)O)C(=O)N[C@@H](CCC(=O)O)C(=O)N[C@@H](Cc1ccc(O)cc1)C(=O)O)[C@@H](C)O` [Q61] (H-ILDTAGQEEY-OH) is 0.278 ± 0.032 µM.
For the compound “NRAS^Q61H: NRAS55-64 neoepitope peptide with Q61H mutation (ILDTAGHEEY)”, the “% deuterium uptake of peptide fragments corresponding to the NRAS peptide” value in the test with HLA-A*01:01/hβ2m [2] (HDX-MS of peptide/HLA-A*01:01/hβ2m, back-exchange corrected, pD 6.5, 25 °C, up to 600 s, biological triplicates) was “approx. 75%”. Moreover, the “Average % deuterium uptake” value with HLA-A*01:01/hβ2m [2] (fragment ASGSHSMRY 2-10, charge 1) worked out at 85.9593%; in the test with HLA-A*01:01/hβ2m [2] (setting [3]), 85.2218%; in the test with HLA-A*01:01/hβ2m [2] (setting [4]), 85.2836%; in the test with HLA-A*01:01/hβ2m [2] (setting [5]), 76.8148%.
Turning to “NRAS^Q61L: NRAS55-64 neoepitope peptide with Q61L mutation (ILDTAGLEEY)”, the “deuterium uptake of the HLA-A*01:01 α2-1 helix (residues 139–155) in the peptide-loaded complex” value with HLA-A*01:01/hβ2m [2] (HDX-MS, back-exchange corrected, pD 6.5, 25 °C, comparison among peptide-loaded samples) was “significantly reduced deuterium uptake”. Moreover, the “Average % deuterium uptake” value with HLA-A*01:01/hβ2m [2] (setting [3]) was determined as 83.6219%; with HLA-A*01:01/hβ2m [2] (setting [4]), 84.5527%; with HLA-A*01:01/hβ2m [2] (setting [5]) it was 77.0018%.
With “NRAS^Q61R: NRAS55-64 neoepitope peptide with Q61R mutation (ILDTAGREEY)”, the “Average % deuterium uptake” value with HLA-A*01:01/hβ2m [2] (setting [3]) turned out to be 83.2364%; in the test with HLA-A*01:01/hβ2m [2] (setting [4]), 83.3198%; in the test with HLA-A*01:01/hβ2m [2] (setting [5]), 78.2896%.
